Source: patent US20230174626A1

Molecular target: HCMV glycoprotein H (gH) on TB40 virus (Human Cytomegalovirus (HCMV), TB40 virus)
Assay: cell-based or functional assay

- IC50 (µg/ml), HCMV TB40 neutralization on ARPE-19 epithelial cells: 0.89 µg/mL
- IC50 (µg/ml), HCMV TB40 neutralization on MRC-5 fibroblasts: 0.46 µg/mL
Substance: mAb MSL-109 (antibody)
